Patent publication US7951385B2, “Probiotic strain and antimicrobial peptide derived therefrom” (Cipla Medpro Research and Development (Pty) Ltd., priority 2006, dated 2011)
Where two headings read alike, the source gives them in different places.

Key:
Enterococcus spp. HKLHS = test: Extracellular DNA after treatment of pathogens with peptide ST4SA; assay type: cell-based; details: Control organism Enterococcus spp. HKLHS
Description: (§1) Further evidence of cell membrane damage and leakage of cellular constituents was obtained by testing for extracellular DNA and extracellular β-galactosidase activity.

Streptococcus pneumoniae = test: as above; assay type: cell-based
Description: as §1

Staphylococcus aureus = test: as above; assay type: cell-based; details: Staphylococcus aureus 36
Description: as §1

[1] = test system: Lactobacillus sakei DSM 20017; test: Binding of peptide ST4SA to polyethylene (PE); assay type: physicochemical
Experimental: Binding of peptide ST4SA to polyethylene (PE) was tested. PE film was cut into sections of 5×5 cm and soaked for 1 h in a solution of 60% isopropanol and peptide ST4SA (activity level: 102 400 AU/ml). The PE sections were air-dried (20 min at 60° C.) and assayed for antimicrobial activity by using the standard agar diffusion method. The plates, seeded with L. sakei DSM 20017, were incubated for 24 h at 30° C. and examined for zones of growth inhibition.
The strength of binding was determined by soaking the peptide-coated PE film in SDS-buffer, followed by electro-eluting peptide ST4SA from the film with a current of 30 mA for 2 h (room temperature, i.e. ca. 25° C.). Samples were taken at regular time intervals and tested for antimicrobial activity. Protein concentrations were determined by using the Bradford method. Electro-eluted film was tested for antimicrobial activity by using the agar diffusion method as before.

virulence factors = test: Virulence factors assayed (in vitro tests and/or PCR screening); design: species or system Enterococcus mundtii
Description: The presence of virulence factors, viz. vancomycin resistance (VanA/VanB/VanC1/VanC2/VanC3), production of gelatinase (Gel), aggregation substance (AS), adhesin of collagen from enterococci (Ace), enterococcus surface protein (Esp), haemolysin/bacteriocin (Cyl) and non-cytolysin beta hemolysin genes were studied by in vitro tests and/or PCR screening. DNA was extracted from E. mundtii ST4 according to standard methods. The primers designed for amplification of the latter genes were as described.

L. monocytogenes = L. monocytogenes challenged with ST4SA in in vitro gastro-intestinal (GIT) model; assay type: cell-based, Listeria monocytogenes
Experimental: The antimicrobial activity of ST4SA against L. monocytogenes in an in vitro gastro-intestinal model was determined. ST4SA was inoculated in the stomach vessel as described hereinbefore. L. monocytogenes (1×10^4) was inoculated in the duodenum vessel of the GIT. Samples were taken from each vessel and plated out on Enterococcus and Listeria specific medium, respectively. As control, only L. monocytogenes was inoculated in the GIT model.

[2] = assay type: physicochemical
Experimental: The stability of peptide ST4SA, suspended in sterile distilled water, was tested at temperatures ranging from −20° C. to 60° C. over 42 days (FIG. 12). The peptide remained stable at −20° C. for 42 days and for three weeks at 4° C. […] Peptide ST4SA in powder form did, however, remain stable for 6 months at room temperature (25° C.). Peptide ST4SA will be produced in powder form and marketed as such. Once dissolved in sterile distilled water, peptide ST4SA may be kept for three weeks at 4° C. (see FIG. 12).

[3] = test system: Pseudomonas sp. isolated from infected middle-ear fluid; test: Activity on paper disks and comparison with antibiotics (inhibition zones); assay type: cell-based
Experimental: Activity was tested against a Pseudomonas sp. isolated from infected middle-ear fluid.

In the case of “Peptide ST4SA: broad-spectrum antibacterial peptide (bacteriocin) produced by Enterococcus mundtii strain ST4SA, SEQ. ID. NO. 12 (MSQVVGGKYYGNGVSCNKKGCSVDWGKAIGIIGNNSAANLATGGAAGWKS; ENTEROCOCCUS MUNDTII ST4SA)”, the “DNA-leakage (O.D. readings at 260 nm)” value (Enterococcus spp. HKLHS) is reported as 1.395, the “DNA-leakage (O.D. readings at 260 nm)” value (Streptococcus pneumoniae; Streptococcus pneumoniae 27) is reported as 1.670 and the “DNA-leakage (O.D. readings at 260 nm)” value (Streptococcus pneumoniae; Streptococcus pneumoniae 29) is reported as 1.182. For the same substance, the “DNA-leakage (O.D. readings at 260 nm)” value (Streptococcus pneumoniae; Streptococcus pneumoniae D) was 1.160, the “DNA-leakage (O.D. readings at 260 nm)” value (Staphylococcus aureus) was 0.892 and the “Time to adsorb to PE” value ([1]; PE film, 60% isopropanol, peptide 102 400 AU/ml) was no more than 60 s. For the same substance, the “Antimicrobial activity of peptide-coated PE film” value ([1]; agar diffusion, L. sakei DSM 20017) was “high antimicrobial activity”, the “Time to release of peptide from the surface of PE” value ([1]; electro-elution, current of 30 mA, SDS-buffer) was no less than 1 h and the “Virulence factor AS (Aggregation substance)” value (virulence factors) was “−”. The “Virulence factor Ace (Adhesin to collagen from E. faecalis)” value (virulence factors) was “−”, the “Virulence factor Cyl (Cytolysin, β-hemolysin activity)” value (virulence factors) was “+” and the “Virulence factor Efa-Afm (E. faecium endocarditis antigen)” value (virulence factors) was “−”. For the same substance, the “Virulence factor Efa-Afs (E. faecalis endocarditis antigen)” value (virulence factors) was “−”, the “Virulence factor Esp (Enterococcus surface protein)” value (virulence factors) was “−” and the “Virulence factor Gel (Gelatinase production)” value (virulence factors) was “−”. For the same substance, the “Virulence factor Non-cyt (non-cytolysin beta hemolysin III)” value (virulence factors) was “+”, the “Virulence factor Van A (Vancomycin resistance)” value (virulence factors) was “−” and the “Virulence factor Van B (Vancomycin resistance)” value (virulence factors) was “−”. For the same substance, the “Virulence factor Van C1/2/3” value (virulence factors) was “−”, the “L. monocytogenes lower than control” value (L. monocytogenes; ileum vessel, compared with the control) was 1×10^1 cfu/ml and the “Growth of L. monocytogenes” value (L. monocytogenes; jejunum vessel, reduced from 8×10^4 (control)) was 2×10^4. For the same substance, the Stability [2] was “Stability decreased after one week”, the “Time peptide remained stable” value ([2]; powder form, room temperature (25° C.)) was 6 months and the “Time peptide remained stable” value ([2]; suspended in sterile distilled water, 4° C.) was “three weeks”. For the same substance, the “Time peptide remained stable” value ([2]; suspended in sterile distilled water, −20° C.) was 42 days, the “Diameter of inhibition zones” value ([3]; Ampicillin 10 μg, Bacitracin 10 units, Chloramphenicol 30 μg, Erythromycin 15 μg, Tetracycline 30 μg, peptide on paper disk) was 25 mm and the “Activity of peptide ST4SA on paper disks” value ([3]; Freeze dried) was 409600 AU/ml. For the same substance, the “Activity of peptide ST4SA on paper disks” value ([3]; Paper disk (0.6 cm diameter)) was 20263 AU/ml and the “Activity of peptide ST4SA on paper disks” value ([3]; Paper disk (2 cm × 2 cm; 700 μl)) was 286720 AU/ml.
